Data from publication PMC3744483, “Swiprosin-1 Is a Novel Actin Bundling Protein That Regulates Cell Spreading and Migration” (PLoS ONE, 2013).

T1: GST-tagged wild-type swiprosin-1 (human, UniProt Q96C19 1-240)
T1 construct: swiprosin-1, human, full length, in pGEX-4T-1; source: E. coli BL21, purified (glutathione beads, eluted with glutathione)
T1 sequence (looked up): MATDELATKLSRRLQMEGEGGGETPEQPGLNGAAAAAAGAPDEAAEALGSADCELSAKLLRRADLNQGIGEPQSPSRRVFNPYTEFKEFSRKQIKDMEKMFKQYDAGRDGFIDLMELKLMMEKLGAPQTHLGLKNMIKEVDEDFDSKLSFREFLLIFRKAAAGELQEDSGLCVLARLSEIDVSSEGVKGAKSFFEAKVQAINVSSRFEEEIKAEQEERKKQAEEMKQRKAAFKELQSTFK

B1: His-tagged wild-type swiprosin-1 (natural protein, human, UniProt Q96C19 1-240, looked up)
chain: MATDELATKLSRRLQMEGEGGGETPEQPGLNGAAAAAAGAPDEAAEALGSADCELSAKLLRRADLNQGIGEPQSPSRRVFNPYTEFKEFSRKQIKDMEKMFKQYDAGRDGFIDLMELKLMMEKLGAPQTHLGLKNMIKEVDEDFDSKLSFREFLLIFRKAAAGELQEDSGLCVLARLSEIDVSSEGVKGAKSFFEAKVQAINVSSRFEEEIKAEQEERKKQAEEMKQRKAAFKELQSTFK
notes: swiprosin-1, human, full-length clone amplified from pOTB7 (RZPD), cloned into a modified pET-28a; The modified pET-28a carries a TEV protease cleavage site (ENLYFQ/G) with the N-terminal tandem His tags; no cleavage is described and the protein is detected with anti-His; also called Swip-1; source: E. coli BL21 (DE3), purified (Ni-NTA agarose); not shown: His tag (tandem), N-terminal, kept

Assays:
[1] = molecular target: B1; assay: pull-down; GST pull-down: equal amounts of purified GST_Swip-1 (wild type or mutants) and His_Swip-1 with glutathione-Sepharose 4B beads, 2 h at 4°C, 50 mM Hepes pH 7.4, 150 mM NaCl, 1.5 mM MgCl2, 1% Triton X-100; blot with anti-His; also with or without 2 mM EGTA; conditions: both partners purified
[2] = molecular target: T1, GST-tagged wild-type swiprosin-1; assay: as above; conditions: both partners purified

Row | binding result [1] | binding result [2] | Binder
1 | binds | – | GST-tagged swiprosin-1 163–240 (domain or fragment, human, UniProt Q96C19 163-240, looked up, swiprosin-1, human, residues 163–240 (C-terminal region with the coiled-coil domain), in pGEX-4T-1; also called 163–240 (h); source: E. coli BL21, purified (glutathione beads, eluted with glutathione)) GELQEDSGLCVLARLSEIDVSSEGVKGAKSFFEAKVQAINVSSRFEEEIKAEQEERKKQAEEMKQRKAAFKELQSTFK
2 | – | binds | B1
3 | binds | – | AINVSSRFEEEIKAEQEERKKQAEEMKQRKAAFKELQSTFK (domain or fragment, human, UniProt Q96C19 200-240, looked up, swiprosin-1, human, residues 200–240 (C-terminal coiled-coil region), in pGEX-4T-1; also called 200–240 (i); source: E. coli BL21, purified (glutathione beads, eluted with glutathione)) [GST-tagged swiprosin-1 200–240]
